Experimental data from patent US20070071750A1 (UNIVERSIDAD NACIONAL AUT NOMA DE M XICO UNAM, published 2007).

Assays:
BSA = biological target: T1, BSA (Bos taurus, UniProt P02769); test: phage ELISA, BSA coated, anti-M13-HRP, Abs. 492 nm
T1 construct: also called bovine serum albumin

[1] = biological target: T2, toxin Cll1 from Centruroides limpidus limpidus (Centruroides limpidus limpidus, UniProt P45667 1-66); test: phage ELISA, Cll1 coated at 3 µg/ml, anti-M13-HRP, Abs. 492 nm
T2 sequence: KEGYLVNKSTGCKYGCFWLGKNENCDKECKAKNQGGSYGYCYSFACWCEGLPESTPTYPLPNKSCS

[2] = biological target: toxin Cll2 from Centruroides limpidus limpidus (Centruroides limpidus limpidus, UniProt P59898 1-66); test: phage ELISA, Cll2 coated at 3 µg/ml, anti-M13-HRP, Abs. 492 nm
[3] = biological target: T3, toxin Cn2 from Centruroides noxius Hoffmann scorpion venom (Centruroides noxius Hoffmann, UniProt P01495 17-82); test: SPR (Biacore), Cn2 immobilised, soluble scFv injected
T3 construct: mature; also called Cn2 toxin; formerly 11-9.2.2

Binder	binding result (BSA)	binding result [1]	binding result [2]	Kd [3] [µM]	koff [3] [s⁻¹]	kon [3] [M⁻¹ s⁻¹]
scFv 3F (scFv, also called clone 3F; phage-antibody 3F) scFv: EVQLVESGGGLVQPGGSLRLSCAGSGFTFDNYAMHWIRQVPGEGLEWVSGISRSSGDIGYADSVKGRFTISRDNAKKSLSLQMNSLRAEDTAVYYCARGGVGSFDTWGQGTMVTVSSGGGGSGGGGSGGGGSEIVLTQSPATLSVSPGERATLSCRASQSVRSYLAWYQQKPGQAPRLLISDASNRATGIPARFTGSGSGTDFTLTISSLEPEDFAIYYCQQYRYSPRTFGQGTKVEIKR	no binding (tested: 1x10^11 phages/ml)	no binding (tested: 1x10^11 phages/ml)	no binding (tested: 1x10^11 phages/ml)	–	–	–
scFv C1 (scFv, also called clone C1; phage-antibody C1) scFv: QVNLRESGGGLVQPGGSLRLSCAASGFSFGSYGMHWVRQAPGKGLEWVAVISYDGSNKYYADSVKGRFTISRDNSKNTLYLQMNSLRAEDTAVYYCAKDARDCLMCADWYFDLWGRGTLVTVSSGGGGSGGGGSGGGGSNFMLTQPHSASGTPGQRVTISCSGSSSNIGSNTVNWYRHLPGSAPELLIGSHNQRPSGVPDRFSASKSDTSASLAISGLQSEDEADYYCAAWDDSLIGYVFGTGTKLTVLG	no binding (tested: 1x10^11 phages/ml)	no binding (tested: 1x10^11 phages/ml)	no binding (tested: 1x10^11 phages/ml)	0.54	0.014	20000
